Measurements from patent US20240317826A1, “COMPOSITIONS AND METHODS FOR TREATING AND/OR I[…] AGENT FOR TREATING HIV-1 INFECTIONS” (priority 2021, published 2024).

B1: S6: INI1 fragment (aa 183-294) harboring the Rpt1 domain, linker region and a part of Rpt2 (protein, UniProt Q12824 183-294, looked up, fragment)
chain: PEVLVPIRLDMEIDGQKLRDAFTWNMNEKLMTPEMFSEILCDDLDLNPLTFVPAIASAIRQQIESYPTDSILEDQSDQRVIIKLNIHVGNISLVDQFEWDMSEKENSPEKFA
B2: INI1183-304: INI1 fragment aa 183-304 (Rpt1, linker, part of Rpt2), expressed as His6-SUMO fusion (protein)
chain: PEVLVPIRLDMEIDGQKLRDAFTWNMNEKLMTPEMFSEILCDDLDLNPLTFVPAIASAIRQQIESYPTDSILEDQSDQRVIIKLNIHVGNISLVDQFEWDMSEKENSPEKFALKLCSELGLG
modifications: left off: large carriers
notes: INI1 fragment aa 183-304 (Rpt1, linker, part of Rpt2), expressed as His6-SUMO fusion

Assays:
[1] = test system: HIV-1 particle production; details: by binding to IN within GagPol; cited from earlier work
IN-CTD = target: T1, IN-CTD (Human immunodeficiency virus type 1 group M subtype B, UniProt P04585); assay: Alpha proximity assay, binding of His6-SUMO-INI1183-304 to GST-CTD; design: species or system HIV-1
T1 construct: pGEX3x-IN and pGST-IN-CTD(aa 201-288) were used as templates; made in house; host or cells: bacteria (E. coli)
Experimental: FIG. 16A-FIG. 16H show quantitative Alpha protein-protein interaction assay to determine the interaction of IN, CTD, and the mutants with INI1 and INI1183-304. […] A titration curve was generated with increasing concentrations of His6-SUMO-INI1183-304 with two different fixed concentration of GST-CTD and the interactions were detected as Alpha Score. The KD values were determined by nonlinear regression analysis using specific binding with Hill slope analysis in GraphPad Prism. Data from one representative experiment is depicted. FIG. 16B and FIG. 16C show effect of salt on the interactions of GST-CTD either with His6-SUMO-INI1183-304 or biotinylated(Bio)-TAR RNA (n=3 independent experiments). The interaction was tested using fixed concentrations of GST-CTD (0.75 μM) and increasing concentrations of His6-SUMO-INI1183-304 (or Bio-TAR RNA) in two different NaCl conditions (100 and 500 mM). […] The IC50 values were determined by fitting the data to a four-parameter dose-response curve using GraphPad prism. […]
AlphaScreen proximity assay to detect the protein-protein and protein-RNA interactions. […] The Alpha score readings were measured using Alpha-compatible Envision 2105 multi-plate reader (Perkin-Elmer). All the experiments related to this method were carried out 3 to 5 times and data were analyzed by using Graph Pad Prism 9 version 9.0.0 (GraphPad Software, CA). […]

Molecule | inhibition of HIV-1 particle production [1] | KD for binding, IN-CTD/INI1183-304 (IN-CTD)
B1 | trans-dominantly inhibits HIV-1 particle production | 
B2 |  | low nM
